Laboratory results from patent publication US20110251266, “APTAMER FOR NGF AND USE THEREOF” (Shionogi & Co., Ltd., published 2011).
Residue numbers refer to the chain shown, from its start.

B1: SEQ84 aptamer (ssRNA)
RNA: GGGAGAACUUCGACCAGAAGUGAAAGAAACUCCCGAUGAAAGAUGUAACAAACCAUAUGUGCGCAUACAUGGAUCCUC
modifications: 2'-F all pyrimidines
B2: SEQ63 aptamer (ssRNA)
RNA: GGGAGAACUUCGACCAGAAGAUUUGAAAGAAACCCAAACUAAGCACAAAAUAUGUGCGCAUACAUGGAUCCUCA
modifications: 2'-F all pyrimidines
B3: SEQ50 aptamer (ssRNA)
RNA: GGGAGAACUUCGACCAGAAGUGAAAAAACCUCCCAAUACAAACACAAAAAUAUGUGCGCAUACAUGGAUCCUCA
modifications: 2'-F all pyrimidines
B4: SEQ56 aptamer (ssRNA)
RNA: B3 RNA with A26G, C29A, U37C, C43U, A44G, A47C, A50C
modifications: 2'-F all pyrimidines
B5: SEQ65 aptamer (ssRNA)
RNA: GGGAGAACUUCGACCAGAAGUGUGAAAAAAACCCAAAUCGAGCACAAAAUUAUGUGCGCAUACAUGGAUCCUCA
modifications: 2'-F all pyrimidines
B6: SEQ53 aptamer (ssRNA)
RNA: GGGAGAACUUCGACCAGAAGUUUGAAAGGAACCCAAAAACACAAAAUGUCUAUGUGCGCAUACAUGGAUCCUCA
modifications: 2'-F all pyrimidines
B7: SEQ46 aptamer (ssRNA)
RNA: GGGAGAACUUCGACCAGAAGUUUGAAACAAACCCAAAGUUACGCACAAAAUAUGUGCGCAUACAUGGAUCCUCA
modifications: 2'-F all pyrimidines
B8: SEQ59 aptamer (ssRNA)
RNA: GGGAGAACUUCGACCAGAAGUCGAAACGUUUGAAAAAAACCCAAGGAGGAUAUGUGCGCAUACAUGGAUCCUCA
modifications: 2'-F all pyrimidines
B9: SEQ45 aptamer (ssRNA)
RNA: GGGAGAACUUCGACCAGAAGAGAAUGAAACUCCCAAAUCAAGGACAAUGAUAUGUGCGCAUACAUGGAUCCUCA
modifications: 2'-F all pyrimidines
B10: SEQ47 aptamer (ssRNA)
RNA: GGGAGAACUUCGACCAGAAGAAGUUUGAAAAGAACCCAAAAUGAGCAAAAUAUGUGCGCAUACAUGGAUCCUCA
modifications: 2'-F all pyrimidines
B11: SEQ55 aptamer (ssRNA)
RNA: GGGAGAACUUCGACCAGAAGUUUGAAAGAAACCCAAAAAUGAAUGCAACUAUGUGCGCAUACAUGGACCUCA
modifications: 2'-F all pyrimidines
B12: SEQ43 aptamer (ssRNA)
RNA: GGGAGAACUUCGACCAGAAGCUUGAAAAAACCCCAAUAUGAGAAUCAUAUAUGUGCGCAUACAUGGAUCCUCA
modifications: 2'-F all pyrimidines
B13: SEQ61 aptamer (ssRNA)
RNA: GGGAGAACUUCGACCAGAAGGUCGUAACGAAUAAAACUCCUGCACAAAAAUAUGUGCGCAUACAUGGAUCCUCA
modifications: 2'-F all pyrimidines
B14: SEQ48 aptamer (ssRNA)
RNA: GGGAGAACUUCGACCAGAAGUUUGAAAAGAACCCGAAAAACGCAUAAUAAUAUGUGCGCAUACAUGGAUCCUCA
modifications: 2'-F all pyrimidines
B15: SEQ66 aptamer (ssRNA)
RNA: B5 RNA with G22U, U38G, G40A, A48C
modifications: 2'-F all pyrimidines
B16: SEQ30(5) (ssRNA)
RNA: GGGAUAAAAAUAGAGUUUGAUAAACACCUGUAUUAAAACCC
modifications: 2'-F pyrimidines and some purines, 2'-OMe at many purines as printed in p174, 5' and 3' idT
B17: SEQ35(1) (ssRNA)
RNA: GGGAAGCCUGUGGAGCUGCAGGAUGAAAAAAACCCAAA
modifications: 2'-F pyrimidines, 2'-OMe at a4 a5 g6 g10 g12 g13 a14 g15 g18 a20 g21 g22, 5' and 3' idT

biological target: T1, beta-NGF (nerve growth factor) (Homo sapiens, UniProt P01138 P01138:122-241); experiment: cell_activity; neurite outgrowth, Neuroscreen-1 cells; settings: tags: R&D Systems; chain copies: 2
Protocol: (§1) The neurite outgrowth inhibitory activity of aptamer was evaluated by using Neuroscreen-1 cell, which is a subclone of PC-12 cells. 2500 Cells per well were cultured for one day in an RPMI-1640 medium containing 2.5% horse serum and 1.25% fetal bovine serum in a 96 well flat-bottom plate coated with collagen type IV. A mixed solution of NGF (final concentration 15 ng/ml or 1.1 nM) prereacted in a serum-free RPMI-1640 medium at room temperature or 37° C. for 30 min to 1 hr and an aptamer (final concentration 500-3 nM) was added. Two or three days later, the cytoplasm and nuclei were stained using Cellomics Neurite Outgrowth Kits (manufactured by Thermo Scientific), and neurite length per cell was measured by Cellomics ArrayScan VTI (manufactured by Thermo Scientific). With the neurite length per cell obtained by culturing the cell for 2 days with the addition of NGF alone as inhibitory activity 0%, and that of the cell obtained by NGF free culture as inhibitory activity 100%, the inhibitory activity of the aptamer was calculated from the neurite length per cell obtained by culturing with the addition of NGF and the aptamer in mixture. […] When the inhibitory activity was 0% or below, ‘0%’ is indicated. When it was not less than 100%, ‘100%’ is indicated. The 50% inhibitory concentration was determined from the concentrations at two, above and below points sandwiching the 50% inhibitory activity.

T1 sequence (P01138 122-241, one chain of several): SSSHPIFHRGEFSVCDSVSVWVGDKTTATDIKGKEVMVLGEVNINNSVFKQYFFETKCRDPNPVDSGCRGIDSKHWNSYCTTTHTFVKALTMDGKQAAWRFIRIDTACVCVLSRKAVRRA

| Binder | IC50 [nM] |
| --- | --- |
| B1 | 14.6 |
| B2 | < 10 |
| B3 | 25.4 |
| B4 | 18.8 |
| B5 | 22.2 |
| B6 | < 10 |
| B7 | 25.4 |
| B8 | 71.5 |
| B9 | 20.2 |
| B10 | 14.6 |
| B11 | 49.9 |
| B12 | < 10 |
| B13 | 20.7 |
| B14 | 46.4 |
| B15 | < 10 |

biological target: T1, beta-NGF (nerve growth factor); experiment: SPR; blocks NGF-TrkA and NGF-P75; settings: tags: R&D Systems; chain copies: 2
Protocol: As directed in BIAcore Company's protocol, Protein A (21181, PIERCE) was immobilized on a CM5 sensor chip. About 1100 RU of human Trk A-Fc fused with the Fc portion of IgG (175-TK, R&D systems) was immobilized thereon. As the analyte, a mixture of NGF (0.1 μM) and each aptamer (0.33 μM) was injected after being allowed to stand for 30 minutes. […] When NGF binds stronger to a receptor than an aptamer, the aptamer may be removed and NGF may bind to the receptor. […] Using the binding amount of NGF and NGF receptor without an aptamer as 100, the binding amount of NGF and NGF receptor added with an aptamer was determined as a correction value. Here, the binding amount is the RU value at the peak top of the sensorgram of BIAcore (RU value immediately after completion of NGF injection). […] A similar experiment was performed for another receptor P75 (p75-Fc; R&D systems).

| Binder | activity [% inhibition] |
| --- | --- |
| B1 | ≥ 60 |
| B2 | ≥ 60 |
| B3 | ≥ 60 |
| B5 | ≥ 60 |
| B6 | ≥ 60 |
| B7 | ≥ 60 |
| B8 | ≥ 60 |
| B9 | ≥ 60 |
| B10 | ≥ 60 |
| B11 | ≥ 60 |
| B12 | ≥ 60 |
| B13 | ≥ 60 |
| B14 | ≥ 60 |
| B15 | ≥ 60 |

biological target: T1, beta-NGF (nerve growth factor); experiment: cell_activity; Neuroscreen-1 neurite outgrowth; settings: tags: R&D Systems human NGF; chain copies: 2
Protocol: as §1

| Binder | IC50 [nM] |
| --- | --- |
| B16 | < 100 |
| B17 | 94.7 |
